Source: US20020132773A1, “Methods for reducing fat by administration of adiponectin” (Oklahoma Medical Research Foundation, priority 2001, published 2002)
“Also recorded” adds a separate entry of the source.

Columns and labels:
[1] = system: C/EBP-α and PPAR-γ in BMS2 preadipocytes; assay: Adipocyte gene expression analysis (Northern blot) in BMS2 cells; type: cell-based
Description: (§1) Poly(A)^+mRNA was prepared from the indicated samples using oligo(dT) columns (Ambion Inc, Austin, Tex.). Aliquots oifpoly(A)^+ mRNA (2 μg) were denatured in formamide and formaldehyde at 65 C and electrophoresed on formaldehyde-containing agarose gels. After capillary transfer to nylon membranes (MSI, Westbourough, Mass.), the RNA was crosslinked by UV exposure. cDNA probes for CCAAT/enhancer binding protein-α(C/EBP-α) and adipocyte P2 (aP2) were obtained from ResGen™ Invitrogen (Huntsville, Ala.) and American Type Culture Collection (Manassas, Va.) respectively. Probes with sizes corresponding to PPAR-γ, COX-1 and COX-2 were prepared as PCR products and all probes were radiolabeled with [α-^32P]dCTP using the random prime labeling system (Redi Prime™ II) purchased from Amersham Pharmacia Biotech.
(§2) Differentiation of BMS2 cells to adipocytes was achieved by treatment with 5 μg/ml insulin and 0.5 mM MIBX for 10 days. Differentiation of MS5 cells to adipocytes was achieved by treatment with 5 μg/ml insulin alone for 15 days. Cultures were treated with adiponectin, PGE2 or Dup-697 from the time of culture initiation. At the end of this period, cultures were photographed and then stained with Nile red to detect lipid accumulation indicative of adipocyte differentiation. The extent of differentiation was estimated by flow cytometry (FACScan; Becton-Dickinson, San Jose, Calif.).

[2] = system: 3T3-L1 cells; assay: Adipocyte generation by 3T3-L1 cell line; type: cell-based; conditions: insulin as only inducing agent; adiponectin 10 μg/ml, PGE2 1×10^-6 M
Text: Normal human bone marrow was collected by biopsy from the posterior iliac crest of healthy young volunteers with informed consent, and used for immunohistchemical analysis of adiponectin. BMS2 and 3T3-L1 cells were maintained in D-MEM (high glucose) supplemented with 10% fetal calf serum (FCS) (HyClone, Logan, Utah). MS5 cells were maintained in α-MEM medium supplemented with 10% FCS. Balb/c mice at 3-6 weeks old: were obtained from Charles Rivers Breeding Labatories (Wilmington, Me.). B6,129S-^Ptgs2tm1Jed (COX-2^+/−) mice and C57BL/6 mice (3-5 weeks old) were purchased from the Jackson Laboratory (Bar Harbor, Me.). High mortality and unavailability precluded use of homozygous COX^−/− animals in these experiments, but a single targeted allele abrogated preadipocyte responses to adiponectin.
Bone marrow cultures represent a complex mixture of hematopoietic cells that mature through interactions with an adherent stromal layer composed of fibroblasts, adipocytes, macrophages and endothelial cells.

[3] = system: BMS2 cells; assay: Adipocyte differentiation of BMS2 cells; type: cell-based; conditions: for fat cell formation (adipogenesis) of BMS2 cells: 5 μg/ml insulin and 0.5 mM MIBX, 10 days, proteins 10 μg/ml, PGE2 and Dup-697 1×10^-6 M, microscopy
Description: as §2

[4] = system: cultured macrophages; conditions: cited from earlier work
[5] = system: myeloid cell lines; conditions: cited from earlier work
[6] = system: bone marrow cells of normal Balb/c mice (LTBMC); assay: Long-term bone marrow cultures (LTBMC, Dexter cultures); type: cell-based, mouse
Description: LTBMC that support formation of myeloid cells (Dexter cultures) were initiated and maintained by published methods (Dexter, T. M. and Testa, N. G. Methods Cell Biol. 14:387-405 (1976)). Bone marrow cells of normal Balb/c mice (12×10^6) were cultured in 25-cm^2 flasks in 5% CO2 at 33 C. The medium consisted of α-MEM supplemented with 100 nM hydrocortisone and 20% horse serum (HyClone). Cultures were treated with adiponectin or bovine serum albumin (BSA) beginning at culture initiation and thereafter weekly for 6 weeks. In some experiments, adiponectin was omitted from the media after 6 weeks of culture, and maintained for another 6 weeks with medium alone.

[7] = system: normal C57BL/6 bone marrow; assay: Adherent bone marrow cell cultures, normal mice; type: cell-based, mouse; conditions: treated weekly for 6 weeks
Description: (§3) Adherent bone marrow cell cultures were established with heterozygous knockout COX-2^+/− mice or normal C57BL/6 mice. BM cells were suspended at 2×10^5 per 6 ml of Dexter culture media and seeded in 25-cm^2 flasks. This cell concentration gives rise to adherent stromal layers without myeloid cell growth. Cultures were treated with adiponecitin or BSA at the time of culture initiation and weekly thereafter for 6 weeks.

[8] = system: bone marrow cells of heterozygous knockout COX-2+/- mice; assay: Adherent bone marrow cell cultures, COX-2+/- mice; type: cell-based, mouse; conditions: cells derived from COX-2+/- animals, treated weekly for 6 weeks
Description: as §3

[9] = system: MS5 or BMS2 cells; assay: Enzyme-immunoassay for PGE2 in culture supernatants; type: cell-based; conditions: confluent BMS2 or MS5 cells, versus BSA
Description: Confluent MS5 or BMS2 cells prepared in 24-well plates were incubated in 500 μl of media with or without adiponectin. Supernatants from these cultures were examined for the presence of PGE2 using an enzyme-immunoassay kit purchased from Cayman Chemical.

[10] = system: CFU-granulocyte-macrophage, CFU-macrophage, CFU-granulocyte, BFU-erythroid, mixed erythroid-myeloid CFU; conditions: cited from earlier work
[11] = system: MS5 cells; assay: Adipocyte differentiation of MS5 cells; type: cell-based; conditions: 5 μg/ml insulin, 15 days; adiponectin 10 μg/ml
Description: as §2

[12] = system: MS5 or BMS2 stromal cell clones; assay: RT-PCR / Northern blot of transcripts in adiponectin-treated preadipocytes; type: cell-based
Description: Total RNA was isolated from MS5 or BMS2 cells treated with adiponectin for various periods using TRIzol Reagent (GIBCO-BRL, Grand Island, N.Y.) and suspended in DEPC-treated water. After treating total RNA with DNase (GIBCO-BRL), cDNA was made using random hexamers and moloney murine leukemia virus reverse transcriptase (GIBCO-BRL). For PCR, 10 μl of the RT mixtures described above were added to PCR buffer containing 1.5 mM MgCl2, 1 U Taq polymerase (Perkin Elmer, Norwalk, Conn.), 2 mM each dNTP, and relevant sense and antisense primers. The DNA in the PCR reaction mixtures was amplified using 25 to 35 cycles of 94 C for 1 min, 55 C for 2 min and 72 C for 3 min. The oligonucleotide primers used for these reactions were 5′-[…]-3′ (SEQ ID NO:5) and 5′-[…]-3′ (SEQ ID NO:6) for COX-2, and 5′-[…]-3′ (SEQ ID NO:7) and 5′-[…]-3′ (SEQ ID NO:8) for COX-1. Primers for TNF-α, TGF-β, interferon (IFN)-α/β/γ, and limitin were also prepared and used in this study.
as §1

[13] = BMS2 cells, Nile red staining, flow cytometry

CCCCC[C@H](O)/C=C/[C@H]1[C@H](O)CC(=O)[C@@H]1C/C=C\CCCC(=O)O [PGE2, prostaglandin E2, reference compound]
increases of C/EBP-α and PPAR-γ expression induced by insulin and MIBX [1]: strongly inhibited
generation of adipocytes by 3T3-L1 line [2]: minimally affected
fat cell formation (adipogenesis) of BMS2 cells [3]: blocked
lipid accumulation induced by insulin and MIBX [3, 13]: completely blocked

B1: adiponectin: adipocyte-specific secretory protein of 244 amino acid residues; human recombinant peptide leader deficient protein, 32 kD monomer with multimers (protein)
chain: ETTTQGPGVLLPLPKGACTGWMAGIPGHPGHNGAPGRDGRDGTPGEKGEKGDPGLIGPKGDIGETGVPGAEGPRGFPGIQGRKGEPGEGAYVYRSAFSVGLETYVTIPNMPIRFTKIFYNQQNHYDGSTGKFHCNIPGLYYFAYHITVYMKDVKVSLFKKDKAMLFTYDQYQENNVDQASGSVLLHLEVGDQVWLQVYGEGERNGLYADNDNDSTFTGFLLYHDTN
lipopolysaccharide-induced production of tumor necrosis factor-α by cultured macrophages [4]: significantly inhibits
phagocytic activity of cultured macrophages [4]: significantly inhibits
increases of C/EBP-α and PPAR-γ expression induced by insulin and MIBX [1]: strongly inhibited
effect of adiponectin on C/EBP-α and PPAR-γ expression with Dup-697 ([1]; insulin and MIBX, Dup-697 1×10^-6 M): abrogated
number of myeloid cell lines whose proliferation is inhibited [5]: 4 of 9
fat cell formation in LTBMC ([6]; adiponectin 10 μg/ml in medium, from culture initiation and weekly for 6 weeks): completely inhibited
influence on myelopoiesis in LTBMC ([6]; adiponectin 10 μg/ml, conditions that favor myeloid cell production): no influence
reversibility of the negative influence on fat cell formation ([6]; adiponectin omitted after 6 weeks, another 6 weeks with medium alone): reversible
adipogenesis in adherent bone marrow cell cultures [7]: blocked adipogenesis
effect on adipogenesis in adherent bone marrow cell cultures [8]: minimum effect; also recorded: negligible
generation of adipocytes by 3T3-L1 line [2]: only slightly inhibited; also recorded: minimally affected
fat cell formation (adipogenesis) of BMS2 cells [3]: substantial suppression
fat cell formation (adipogenesis) of BMS2 cells ([3]; listed as Adiponectin): blocked adipogenesis
lipid accumulation induced by insulin and MIBX [3, 13]: completely blocked
response (block of lipid accumulation) to adiponectin with COX-2 inhibitor included ([3]; BMS2 cells, Nile red staining, flow cytometry, Dup-697 1×10^-6 M): substantially blocked
inhibition of BMS2 fat cell formation by adiponectin with Dup-697 present ([3]; insulin and MIBX, COX-2 inhibitor Dup-697 1×10^-6 M present): not observed
increase in PGE2 secretion [9]: approximately two-fold
colony formation from CFU-granulocyte-macrophage, CFU-macrophage and CFU-granulocyte [10]: suppresses colony formation
colony formation of burst-forming units-erythroid or mixed erythroid-myeloid CFU [10]: no effect
suppression of adipocyte differentiation of MS5 clone [11]: substantial suppression
basal expression of TGF-β, interferon-α/β/γ and limitin [12]: not obviously influenced
transcripts corresponding to TNF-α or interferon-β ([12]; MS5 cells, adiponectin added to cultures): not detectable
transcripts for COX-2 ([12]; MS5 or BMS2 stromal cell clones, confirmed by Northern blot): upregulated
